Reference: US9556236 (UNIVERSITY OF SOUTH FLORIDA, dated 2017)
Positions of bridges follow the written chain, without caps; N, C: chain ends. No end group written: not given here.

Target: RSV fusion (F) protein (respiratory syncytial virus (strains …, UniProt P03420 26-574))
Assay: cell-based or functional assay

Chain of RSV fusion (F) protein (respiratory syncytial virus (P03420 26-574): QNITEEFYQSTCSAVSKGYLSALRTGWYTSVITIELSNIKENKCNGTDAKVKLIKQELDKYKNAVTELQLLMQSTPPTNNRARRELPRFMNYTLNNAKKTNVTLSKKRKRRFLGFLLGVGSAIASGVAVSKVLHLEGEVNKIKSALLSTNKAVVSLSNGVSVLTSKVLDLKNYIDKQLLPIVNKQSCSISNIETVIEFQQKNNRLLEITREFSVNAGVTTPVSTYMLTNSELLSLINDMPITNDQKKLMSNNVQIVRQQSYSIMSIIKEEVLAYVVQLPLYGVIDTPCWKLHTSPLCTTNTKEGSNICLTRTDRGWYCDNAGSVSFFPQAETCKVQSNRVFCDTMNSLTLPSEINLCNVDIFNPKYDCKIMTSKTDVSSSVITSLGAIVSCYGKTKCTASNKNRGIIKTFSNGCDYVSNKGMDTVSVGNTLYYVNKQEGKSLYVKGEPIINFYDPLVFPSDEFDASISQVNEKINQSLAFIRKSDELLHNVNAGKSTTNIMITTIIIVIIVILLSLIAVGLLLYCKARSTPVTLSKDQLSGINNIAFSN

Binder | A2 RSV viral titers, plaque assay (time point not clearly stated) | A2 RSV viral titers, plaque assay on HEp2 cells, 24 h to 96 h pi | A2 RSV viral titers, plaque assay, 96 h pi | RA2 RSV viral titers, plaque assay (time point not clearly stated) | RA2 RSV viral titers, plaque assay, 96 h pi | RA2 RSV viral titers, plaque assay on HEp2 cells, 24 h to 96 h pi
FDACISQVNECINQSLAFIRKSDELLHNVNAGKST (disulfide 4-11) [HR2-S] | 0.1 fold decrease | ~0.2 fold reduction | 0.1 fold decrease | 100 fold decrease | 20 fold smaller | 
DACISQVNECINQSLAFICKSDELLCNT (not fully specified (bridges); also: predicted disulfides C3-C10 and C19-C26) [HR2-D] | 100 fold reduction | ≥ 100 fold reduction | 50000 fold reduction | 100 fold decrease | 1000 fold less | ≥ 100 fold reduction
